Measured values as given in paper PMC2735845.

Target: RecQ;SSB113 (Escherichia coli;Escherichia coli, UniProt P15043;P0AGE0 1-609;2-178, |P177S)
Assay: EMSA

B1: 3'-OH partial duplex (o100/o30) (mixed)
DNA 1: GACGCTCGGTTCGTCTAGGACCGTCATTAGTATGTTGATATACATAGACCTTACCGCAGTGATTCGCTTGTCAGTCCATTGAAGCACAATTACCCACGC
DNA 2: CTAATGACGGTCCTAGACGAACCGAGCGTC
  binding result: binds
